Assay results from patent US20100184614, “MICROARRAY SYSTEMS AND METHODS FOR IDENTIFYING DNA-BINDING PROTEINS” (published 2010).

Target: Estrogen receptor alpha (UniProt P03372 P03372:1-595)
Experiment: EMSA; column gel, 30 min
Conditions: tags: Invitrogen; label: IRDye 700 or Cy3; partially double-stranded; 3' single-stranded tag
Procedure: A similar result is obtained using recombinant estrogen receptor alpha (ER-alpha) protein. ER-alpha is obtained from INVITROGEN® and mixed with YZ11 (its specific probe) labeled with IR Dye 700. The mixture was then loaded on the column gel and run for 30 minutes (FIG. 10).

Sequence of Estrogen receptor alpha (P03372 whole entry, one chain of several): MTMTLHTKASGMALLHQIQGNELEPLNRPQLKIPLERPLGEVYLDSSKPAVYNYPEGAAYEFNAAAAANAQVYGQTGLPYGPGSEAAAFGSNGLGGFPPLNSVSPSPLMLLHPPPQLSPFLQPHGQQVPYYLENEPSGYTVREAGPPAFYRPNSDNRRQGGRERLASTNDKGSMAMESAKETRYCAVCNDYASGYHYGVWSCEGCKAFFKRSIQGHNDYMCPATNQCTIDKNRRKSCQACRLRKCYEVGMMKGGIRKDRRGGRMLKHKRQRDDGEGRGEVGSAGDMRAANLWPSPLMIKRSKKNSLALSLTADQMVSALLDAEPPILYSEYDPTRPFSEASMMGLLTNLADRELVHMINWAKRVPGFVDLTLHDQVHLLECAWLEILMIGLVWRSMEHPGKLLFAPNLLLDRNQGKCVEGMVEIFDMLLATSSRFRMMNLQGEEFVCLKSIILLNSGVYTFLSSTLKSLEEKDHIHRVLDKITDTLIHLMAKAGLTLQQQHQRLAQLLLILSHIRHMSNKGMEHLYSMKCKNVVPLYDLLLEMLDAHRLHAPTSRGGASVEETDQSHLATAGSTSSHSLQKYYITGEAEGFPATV

B1: YZ-11 (Table 17) (mixed)
DNA 1: CCTGCCAGGTCGCGCTGCCCTCCTTCTACCATGCCTTAGGAGAATTGTTTTGTTT
DNA 2: GGTAGAAGGAGGGCAGCGCGACCTGGCAGG
**Q.** Does B1 bind?
**A.** binds
